Experimental findings from the DeepSol protein solubility set are described below.

The nature of the series: soluble on expression in E. coli; label from the status in PepcDB or PDB records.
With “MPRYLGLMSGTSLDGMDIVLIEQGDRTTLLASHYLPMPAGLREDILALCVPGPDEIARAAEVEQRWVALAAQGVRELLLQQQMSPDEVRAIGSHGQTIRHEPARHFTVQIGNPALLAELTGIDVVADFRRRDVAAGGQGAPLVPAFHQALFGDDDTSRAVLNIGGFSNVSLLSPGKPVRGFDCGPGNVLMDAWIHHQRGEHFDRDGAWAASGQVNHALLASLLADEFFAARGPKSTGRERFNLPWLQEHLARHPALPAADIQATLLELSARSISESLLDAQPDCEEVLVCGGGAFNTALMKRLAMLMPEARVASTDEYGIPPAWMEGMAFAWLAHRFLERLPGNCPDVTGALGPRTLGALYPA”, the “soluble on expression in E. coli” value is recorded as “not soluble”.

Regarding “MPSMAEIYVKELRERDPATVDTLFLDNAEDGQIGGLTDQLINLEMLSMVKCGLTTLAGFPTLPALTYLDISDNQLGDNASFDVLVKNAPDLKKITLASNKLSLDNLRCLKVLPNLFELDLSNNPSLGLLEDYREKMFEMIPSLKILDGCDVDGEEVEEEFAGEGGEDSEEGSGDEDGPGLSYLEKSQFSDDETDDYAPEGGDAEPRGTKRGASDNGEEPDNKKAAGDDE”, the “soluble on expression in E. coli” value is recorded as “soluble”.

Regarding “MPSNTSIRSNSNAIKARAPASAPKRPTSAEYVKKYTEYLATGHQIRHALQRLYDLNCSIQVFEECLTEKVILQKYTGQSEYQYPVTLLMNKFDDLRKREIRVANEKWSKNGELSAAMFTNKMVMEQRMKDLEKMDQKTANNLFVAALGDSCFIPKKKVDYSKFKITKRSKSSTSTSPSSSSSETSSPIA”, the “soluble on expression in E. coli” value is given as “not soluble”.

Take “MPSSIYRYETIQVAGRGAFGLVVIARDTLTSKRVAIKRIMVPNVSKVSLAREISCLRNLHHRNILKLLDCFPSADLMSIVTEEVPYTLGDIIKDKTRPKTEQFNRWYYTQILSGIAYLHSKEIMHRDIKPENILVTSRNVVKIADFGQACFYMPKDPNQEYDVNVATRWYRAPELLFGSKKYKPDVDIWAIGCILAELVRGKPIFPGRSELEQISIIFGVLGTPNEDNWPNWRTMPDANKLLFEPKEPRNNWTEILLCKEISNNFTEFLGSHLQFFKRLKASELLKEPWIKQGLPLVEPNYRISKKSTRRNQRDALPPLHVFL”: the “soluble on expression in E. coli” value is listed as “not soluble”.

“MPTWEELYKNAIEKAIKSVPKVKGVLLGYNTNIDAIKYLDSKDLEERIIKAGKEEVIKYSEELPDKINTVSQLLGSILWSIRRGKAAELFVESCPVRFYMKRWGWNELRMGGQAGIMANLLGGVYGVPVIVHVPQLSRLQANLFLDGPIYVPTLENGEVKLIHPKEFSGDEENCIHYIYEFPRGFRVFEFEAPRENRFIGSADDYNTTLFIREEFRESFSEVIKNVQLAILSGLQALTKENYKEPFEIVKSNLEVLNEREIPVHLEFAFTPDEKVREEILNVLGMFYSVGLNEVELASIMEILGEKKLAKELLAHDPVDPIAVTEAMLKLAKKTGVKRIHFHTYGYYLALTEYKGEHVRDALLFAALAAAAKAMKGNITSLEEIREATSVPVNEKATQVEEKLRAEYGIKEGIGEVEGYQIAFIPTKIVAKPKSTVGIGDTISSSAFIGEFSFTL”: the “soluble on expression in E. coli” value is “soluble”.

Take “MPTYPPSLLQSLLQYIPERELAWDCGAGSGQLTHMLASYFDQVVGTDISQTQLSHAEYYDNISYQLQPAENTTFPDHCFDLITVAQAIHWFDFEAFYAEVRRTIKPSGILAVVGYGLIHVDDLEINAKVQHLYHQTLNGFWDAERHYVDELYQTIPFPFDEIEMPAFQIEAQWTLQQLLQYLNTWSAVQHYILEKNLDPVQQLLSKGLEHHHHHH”: the “soluble on expression in E. coli” value is “not soluble”.

For the sequence “MPVLYKPFQSNLEDKKSGKKLFYPHVVRTGNINSAQLSKEIAAYSSLSPGDVKNTLDNLVTVMAQHLQSSESVSVDGLGTFRMVMSARGRGVETADEVSAAQATLTVRFQPTTTKNLDRTTATRSMVTGAKCARYDKLVSAPGDGGSVDDPNDKPGGGSDGGDDGEAPDPTV”, the “soluble on expression in E. coli” value was “not soluble”.

Take “MPYIIPTFEEIRAAILRDVKNLLPDADTGPDSDAFIRASSTASAVYGLYQHQLWMARQILPDTADTAYLESHAALRGITRKPATKATGTLTLTGTPGAAVPAGTEARHIATGATFRTTATVTLAENGTASAPCEASVAGAMPDYTAETVLLTAPPPGVQSTASLALTGGTDTETDAELLERLLFHFRNPPGGGNRYDYKRWALEVPGVTGAWVYPLRRGLGTVDVAVLSAGGLPTPELLAAAQARIDERRPVACKDARVLAPTPLAVDVRVRVRLAGTTLPVVTTQVREALAAHFGGYEPGGQVVRSRLEAIISGIPGVADRDLTAPSANVQAVVDASRVEWPRLGTVTVEAMLEHHHHHH”: the “soluble on expression in E. coli” value is “soluble”.

On to “MQAAITVAIPILYKDSVSCSHAESEHFSGTGVTVIIFEVGRDCMKYSFLRQINACVCFDQYEEMEGLLCNGLYMFFIQYTPTILRGDLFAF”, for which the “soluble on expression in E. coli” value is recorded as “not soluble”.

In the case of “MQAHQSLHPSSAYLLDPRDTHHFIRKPTISMETTTEIPAGGATSLLPIVRAAKTPPIPLTVPCAIAGVMMEFECLLRGKRMLVNAMVYNVKTTIAGHPWE”, the “soluble on expression in E. coli” value is on record as “not soluble”.

As to “MQAINPNWNVPKNIHAFTTTREGGVSLAPYLSFNLGDHVGDNKSAVKTNRTLLVEKFGLPQTPIFLTQTHSTRVIQLPYSGQNLEADAVYTNVPNQVCVVMTADCLPVLFTTTSGNEVAATHAGWRGLCDGVLEETVKYFQAKPEDIIAWFGPAIGPKAFQVGIDVVEKFVVVDEKAKLAFQPDAIEEGKYLSNLYQIATQRLNNLGITQIYGGNHCTFNEKEKFFSYRRDNQTGRMASVIWFE”, the “soluble on expression in E. coli” value is given as “not soluble”.

“MQALAAMPAPVAASVRIVLTDIDDTLTTEGRLPAGAYAALERLEQAGIVVVPITGRPAGWCDHIARMWPVRAVVGENGAFYYAYDRSARRMNAHYWADAATRAANRQALQAIRERVLREVPGTAVASDQDYRVADLAIDFCEDVPALPDSAVGRIVEIFHEAGAQAKVSSIHVNGWFGDYDKLTMTRTLFEREFGLSIDSALQHTLFIGDSPNDEPMFKFFPISVGVANIQSQLHRIQHRPAFVAAARGGDGFVEMAERLLANRG”: the “soluble on expression in E. coli” value was “not soluble”.

For “MQARRYLLRPAARLRRSRRIATAAPERLWLFDLDNTLHDTSHAIFPLIDRGMTEAVAETLAVDEATANRLRAEYWRRYGATVIGLVRHHGVDADAFLHRSHNFEVAPLVRAETALADKLRRLPGRKVLLTNAPLHYARAVLRHLGLLRQFDSIWAIEQMCMHGQFRPKPSDALLRYVLAREGVPAARAVLIEDTLDNLRSARRVGLRTVHVFHPGTPFARGHRQRPGYVDLRVNSVSDLLLRRRPLRG”, the “soluble on expression in E. coli” value is “not soluble”.

As for “MQARWIGNMMFHVRTDSNHDVLMDTKEEVGGKDAAPRPLELVLTGLMGCTGMDVVSILRKMKVIDQMKDFRIEIEYERTEEHPRIFTKVHLKYIFKFDGEPPKDKVEKAVQLSQEKYCSVSAILKCSSKVTYEIVYEN”, the “soluble on expression in E. coli” value is “not soluble”.

Turning to “MQDEFDLFRTETKGIKPIKQDTFVAPRQKRDQKKIELKELRAKEDTLFYFSDEYEPLLNDNDGVVKYLRDGEDSHLLKQLRRGDFSPELFLDLHGLTREQAKQELAALLLACENEHVDCASIMTGYGTFTLKKQIPRWLVQHPKVRALHQAPREWGGEAAILILVDL”, the “soluble on expression in E. coli” value is “soluble”.

For the sequence “MQDLGEVEEDPTELRIDVRHGFDTGPMNVQIAQLMQLATGRRRAPRQSSGSGIQLKIGGRIEVLSYQRKMHEAMKYLLGRLFGGKTVKVNHLAIGCKTILRIPTSFKLHVENLEILDTNTYNNMETVRLMIEASSLPLNMVKFRPTNFTTNNHPIVRTARMLYIHATSTRRRFRDFIEALARLKNIRVHVESRDLSSGSWYMTVFRCWMRYGKKVGTYYTFGTTEETINSAMKVFGRLYGSRTGFDGQITINLKKTSQVVIRKVQQENEWILGMKVESR”, the “soluble on expression in E. coli” value is “not soluble”.

Turning to “MQETMLDLRTVYECNRCLGCKTLHPQVGIINLENPSLEEDAVKFEFYAVLLIEDCPGGCCCCGRKYYDYSNATMVFLTPGEIFRMSKENTLPDKGYLLAFHPDLLFRTSLKNHIKNYTFFHYRKEEALHLSRRETEKVTCCLSNIEDELHHPIDTHSSIILSRHIELLLDYCTRYYERQFITRENKNKALLENMERLFVEYIASGRLQGGKLPTSGYMAGELDLSVAYFDDLLKFETGKTLEEYLQLKRLDIARHMLLQDGHTPAAVARKLGYPNVQCFSVLFKKITGVAPSDYRLSQN”, the “soluble on expression in E. coli” value is on record as “not soluble”.

Take “MQEVHDYGAYLILDEYGGVRAFLPWSEIASRAVRNIHAVLKPRQKVVVKVIRVYKKRGQVDVSLKRVMDSEKKRKMMFYKRYLKAATLVELIAEKLGKSVDEAYREVLWKLEDAYGDPMKGLEAAVLQGREALEKAGVPEEWIEPLLETAKTHVRVKTVKITFYLTLRSMAGDGVERVRKVLEAAKSQIESFKDSKVVARIYTVGAPKYRVELQGYNYKTLEKALEKMVEAARKTASKLGVEFSFERED”: the “soluble on expression in E. coli” value was “soluble”.

Turning to “MQFNAVLVKLLDELEVRLRAAQLWQATPPSSQALVSQEPFAVDTLLPHEWLQWIFLPKMQQAIAQNAVPRGFALEPYFSEVWQGEARYQAVLAVIQQIDKVCQ”, the “soluble on expression in E. coli” value was “not soluble”.

As for “MQGEDRWADIREMNDRLIACERCPRLVEFRKAVVGRDKRFRGETYWARPVPGYGDINGRLLIVGLAPAASGGNRTGRVFTGDKSSDFLVSCLHEAGITNQPTSERRDDGLIYYDAYITAAVKCVPPDNKPLPEEIENCSVYLRSEIGFMKNLKVILVLGQIALQAVVRLIADPAEPRSRYRFVHGAVYSMNGIRVVCSYHPSPRNVNTGKLKRSDFVDLLKKVKEMALE”, the “soluble on expression in E. coli” value is “not soluble”.

Consider “MQGKIIKSLAGFYYVESEGQVYQTRARGNFRKRGETPYVGDIVDFSAEDNSEGYILAIHPRKNSLVRPPIVNIDQAVVIMSAKEPEFNSNLLDRFLILLEHKAIHPVVYISKMDLLDSPEEIKAIGRQYQAIGYDFVTSLEELLPLLADKITVFMGQTGVGKSTLLNRIAPELALEIGEISDSLGRGRHTTRAVSFYNTHGGKIADTPGFSSLDYDIANAEDLNEAFPELRRLSHECKFRSCTHTHEPKCAVKAALETGELWPVRYEHYLQFLSEIENRRETYKKVIKRK”, for which the “soluble on expression in E. coli” value was “not soluble”.

In the case of “MQGYHHPLATNHQTQYGTVGQALHIARKLLPFIPDNAGILIVPCCRGGSAFTAGSEGTYSERHGASHDACRWGTDTPLYQDLVSRTRAALAKNPQNKFLGVCWMQGEFDLMTSDYASHPQHFNHMVEAFRRDLKQYHSQLNNITDAPWFCGDTTWYWKENFPHSYEAIYGNYQNNVLANIIFVDFQQQGERGLTNAPDEDPDDLSTGYYGSAYRSPENWTTALRSSHFSTAARRGIISDRFVEAILQFWRER”, the “soluble on expression in E. coli” value is “not soluble”.

On to “MQHHKVAIIGAGAAGIGMAITLKDFGITDVIILEKGTVGHSFKHWPKSTRTITPSFTSNGFGMPDMNAISMDTSPAFTFNEEHISGETYAEYLQVVANHYELNIFENTVVTNISADDAYYTIATTTETYHADYIFVATGDYNFPKKPFKYGIHYSEIEDFDNFNKGQYVVIGGNESGFDAAYQLAKNGSDIALYTSTTGLNDPDADPSVRLSPYTRQRLGNVIKQGARIEMNVHYTVKDIDFNNGQYHISFDSGQSVHTPHEPILATGFDATKNPIVQQLFVTTNQDIKLTTHDESTRYPNIFMIGATVENDNAKLCYIYKFRARFAVLAHLLTQREGLPAKQEVIENYQKNQMYLDDYSCCEVSCTCLEHHHHHH”, for which the “soluble on expression in E. coli” value was “soluble”.

Take “MQIALAPMEGLVDEILRDVLTRVGGIDWCVTEFIRITDRLLPATAFHKLAPELRDGSRTRAGTPMRVQLLGSDPACLADNAAFACELGAPVIDLNFGCPAKTVNRSRGGAVLLKEPELMHDIVAAVRRAVPSEIAVTSKMRLGYDSPDGALDCARALADGGSAHVVVHARTKVDGYRPPAHWEWVARVAEAVRVPVFANGEVWTLDDYLRCREVSGVEDIMLGRGLVSRPGLARQIAAWRDGGEIREMPWSELLPLLRDFWLQARRKLAPRYAPGRLKQWLGMLTRTYPEAVELFARIRRESDCETIDR”: the “soluble on expression in E. coli” value is given as “not soluble”.
